Measured values: the DeepSol protein solubility set

Test: soluble on expression in E. coli; label from the status in PepcDB or PDB records

Sequence	soluble on expression in E. coli
MGSDKIHHHHHHMERMKAFLTDENFKHEINFDNDLLPYKIYQTTIANGYPDALFHWHPELEISYIYEGTAQYHIDYDYFNSQTDDIILVRPNGMHSIHPIKNKMQKAQTLLFHLDLVGYSLLDQISLRYLQPLQNSTFKLVPCIKPDMLGYQDIKNCLFAIFDIYQRQGRHFELLLKAKLQELIYLLYFHQYVLRKHSDDMYRKNEKIRELIDYIHQHYQEKLFIISLADIIGYSKTHFMTVFKQHTGTSCTDFIIQFRLSKACDLLVNSIKPILEVASEVGFTNLSNFNRQFKRYYQITPSQYRKQFKKTQK	not soluble
MGSDKIHHHHHHMERYNTMSGKKTESSDNIVLYPGLVKRLIEKGMEALKEKDAKKALTMFEQAEQYDAEPSQILFGKALCYVELGKLDDAVLLTDQMLRNDIGNYYDILQIHLSLLVQLGRYDEVVEMLDVVLAEDRLPAKHAESFYQLLHFSRQMVEDSPTYIKEPLSEELDLKETYDDINERDSLEQWHFLQQMRKHNNPADIRTLLSFVESESNDPALRSYALHMLTMHKVEKRVRIRKFDQEAEVIPVELNADEQQRFGNAVVEQLEARLAVENPSLFKMAEQLWWQFLYALYPFTPKPEQKDLWAGAVHVAVHESNGLPFDEEEIAGMYNCRVQQMLEKGEEIHFVETETFQGISGHSFR	not soluble
MGSDKIHHHHHHMERYSGRIFDNHFHLNPKSNFLGAANIFKRSGGTTLNLTNLPSHDAITEYYRRLYDDTIRIGDLVHYELGLEMLITIGPYPFDYFFFERYGSDPVNEMMHGLDLAAKYIEDGKAEAIGEIGFPHVPQPESVMERFWEMLDYAMKIAHDVDAPIVMHTYDLSCEDYAKIEKIAKVNGSVSVVKHHARPSDLTCNTGIARSVPASRSAVRKSLLLSRNFMLETDFINDPIDANRFLPPDSVPKRAQMILQEYDDGSEILNNIFNTIPESIYPKLKEKR	not soluble
MGSDKIHHHHHHMESEIKTRGFAIDVSRDKLTVAKAELVITQEKREVEVNEVREFKYDNEGIEELIKFLGEYKEGIMESTGPYFFYLHEELTEKGYKVTLINPLHLKEVFGKKTDKLDAQRLAKAFILGAVKGSYIPTGEIRELRELTRYRESLMRKITQVKNEIRKFLEMAGYKIEPFDKRGMALLEKLSRGEGLSKEERDELKEKLGRSLNDAEKLALKQLVDLLKSLEAMVKEVEDMIISKIPQPVVELSRELV	not soluble
MGSDKIHHHHHHMETKDLIVIGGGINGAGIAADAAGRGLSVLLLEAQDLACATSSASSKLIHGGLRYLEHYEFRLVSEALSERETLLKMAPHIIFPMRFRLPHQPHLRPAWMIRIGLFMYDNIGKRVSLPASKGLKFGADSVLKPELKQGFEYSDCWVDDARLVVLNAQEVAKRGGEVRTRTKVTRARREQGVWIVDAVDSLTGETFTWRAKGLVNATGPWVKEFFDDGLQLKSPYGIRLIKGSHIVVPRVHNQPQAYILQNKDHRIVFVIPWQDDYSIIGTTDVEYKGNPHDVKIDDNEVGYLLDVYNDHFKQQLTRDDIVWTYSGVRPLCDDESDSPQAITRDYTLSVDDDNGQAPLLSVFGGKLTTYRKLAEHALDKLHKYYPQAGKAWTKDAVLPGGDIAGTRDDYAAALRRRFNLPESLTRRYSRTYGSNSELILANVKGLSDLGEDFGHDLYEAELRYLVEKEWAVTLDDVIWRRTKLGMRFDDAQKQRISDWLVSYRQQQMAKAG	not soluble
MGSDKIHHHHHHMETLFRSFRTQLEHTSTEVVRFLHDQIAWDSRLVAILGARGVGKTTLLLQHIKLYDREDESLYVTADDFYFTKYRLFDMAYQFYNLGGKKLYIDEIHKYKDWSREVKNIYDQIPGLQVIYTGSSILDLEKGGADLSRRKVEYRLPGLSFREYLNISQGWQLPSYSLEEILAGKVEFPYKEARPLKLFNDYLSTGYYPFFQDTEYLLRLRSVINQMVESDIPIFADMTVASAVKLKKLLYVLAQSVPFKPNYTKLARDLDISRNVLPDYMSYLEKAGLVNLLREKAQGLKLLEKVEKIYLNNTNLAYALSEQVPDIGSVRETVFLSWMRVVCFVTSSAISDFEIDGRTFEIGGKNKTRQQIKQAADGYVVKDDIEYAFRNMIPLWMFGFIY	not soluble
MGSDKIHHHHHHMETQTRKHSEQKHNSFNNSLEVWKLCFSYPDFVFVSCFNNSLEVWKPGKTLTYDSATNGFNNSLEVWKHSSEALFKAEFRRFNNSLEVWKHHRARRRTLLLPGFNNSLEVWKLIDFKYDSSHYSGFNNSLEVWKPFVLELPDACDCTCFNNSLEVWKPHHRGDSLIRCRVSIIP	not soluble
MGSDKIHHHHHHMEVAEGEFKPAFPIKPAQQLVFVHIPKCGGTSMHQFLANAKKVQPEPELSTILAGYCEPALHKHSKAAVIRDLVGPALWQTIFTFSVVRNPWDLMLSSYRWWLQKAGRFSSLRAQADEVADLGSFEGFLKSDFGGNRINECEGDILSWLSDENGQEIVDFVGRLEDIEQALQNVFERAGLAGYSEFPRLNSTVRGGYQDYYNAETKRLIQTRFQATIDRFEYQF	not soluble
MGSDKIHHHHHHMEVIDLLFSLTPKTKKEDLFDRERELKDLEKLLETYPIVVITGLRRVGKSSLVKVFLNKSDLLHITVDGRRLYETSGGNISSHHLTRFLGEELSRISKSQKLLNVLKRVRGITVSGTSIELNPKEFSLSDLLEKLNETAKRRKKKIVIFFDEAQYLRYYGSRGGNDLLALFAYCYDNFENVRFIISGSEVGVLHDFLKLEDYSSPLHGRGIGFLTVRPFTFDQSVDFLMEGFREVGEKINFDVEEIVREIDGIVGYLVLFGVKYLEKKKKDEALKEVFHAVKALFEKEMEELRKRSERYPFILRQIARGINTWSALKNIFRAKGDFIGDSRLYSLLETLEKMSFIEKTQSGYRIVDPVFERILRE	not soluble
MGSDKIHHHHHHMFDAIGWDEIKNFEYMKQSIIAKIEHACASHEIPLHTHPKGQLILALHGYVTCEVSAKMWMVPTHSAIWIPAYKVHSNRASDNAKLCHLFIDSNMDGMPQNTCTLAISPLVKELMCELASRDQHYRSNSKTARLAQVLHDQLIDMPIQHLDFVLSKNMVIQAMSQQLISQPHDRKTLPQWAEQFALTERTLARLIKKETGMTFGKWRTQLHIITSLQALSDKQSVQQVSELLGYESVSAFITMFKKVMKTSPMKYMNELNAY	not soluble
MGSDKIHHHHHHMFDRSRKGEHALLIQTHSGGPAEEDVLEEFAELAKSAGATVAATLTARIDKPSPSTLIGSGKLEEVKAAAEATGADLVLVNHTLSPGQERNLERYLERRVIDRTGLILDIFAQRARSHEGKLQVELAQLRHMATRLVRGWTHLERQRGGAIGLRGPGETQLETDRRLLQKRVEQLQKRLEKVEVQRTQMRRARMRSELPRIALVGYTNAGKSTLFNALTGADAYAADQLFATLDPTVRRIALPGGSAVLADTVGFVRDLPHELVAAFRSTLSEARDADLLLHIVDAADPLREERIHQVDEVLQAVGAGDLPQLLVFNKIDKIEGAEVRHDAQDGIPDQARRERVWISARDGRGLEELQRALGHRLDLRHITGSLRLPASAGRLRSKLHQLEVIRSEQVDEEGWLLEVDLPYVEAERLAAGEDGAPLRALLPDRREDWET	not soluble
MGSDKIHHHHHHMFELHPDSSTPLVNQIIDGLRELIDNQTLKPGAKVPSIRAFAASYSVSTFTVVEAYDRLVAQGLLVSRGNAGFFVNRAAGELLEQHNTEADTSRPTFNSEWYLQQIFEIRQLPYKPGCGWLPNDWMYEDGLRRGLRQVAGSPLELSGYGDPMGLMELRALTAQNLQQELSIVANPAQLMLTHGASQALDLAARTLVRPGDVVLVDDPGYPNLMSILRTQGATLVGVPRTPAGYDLNQLEQLLSHHRPTAFFTQPHLHSPTCSRTPLPQLHRLLQLASQHGFRLVENNLYADMVAEPQPCLASLDHLQQVVYVGSYSKSISPNVRVGYMLANPELMQKLLHLKMRSGLTTSQVMERVVYAAIIDGRWRKHLKRLRQRLAEAHQEVGRHLHRLGFELFTESDEGMYIWTRHPAIPDSAALLDDALEKGIMLGPGQLFMVDAKATGWMRFNVAFSTDPAMWELLEKVLVKHVRRSGM	not soluble
MGSDKIHHHHHHMFIGREKELATLNGLYNSDKFEFAVIYGRRRVGKTALISHFIQDKKAIYFMGVESNEKQNLENFSQAIMEYASGIMPGTSFVSFQAAIEYVFKLCENERLVLVIDEYPYVAKASKSMASTLQMLIDKNKDNSKMMLILCGSSMSYMEDNVLAYKAPLYGRRTAQMKILPFDFEDSCKYFNGFSAEDMALIYGIVGGTPQYLLQMNDSMSVEDNIKNVFLNPASAIFEEPENLLKQEVREPAVYNAIITAVATGSSRMSEIATKIGETTSVCSQYMKNLINLGLIRKETPYGEKESRKSIYAIADNMFRFWYRFIPDNNSIISRGATELAYKRIAPNLSDYMGRIFEEICMQYMWKLLLDGESPVEFSNLGRWWGTDPQERIQTEIDIMGDQDKSTVLFGECKWINENVDVKVLEKLKKRSRLFRYENVHLFLFAKKGFTQGCIEEAGKMGNVSLVTYDQIYRYLNNIDLSQ	not soluble
MGSDKIHHHHHHMFIKLNKGLDLPISGEPEQCVYAATAVRHIAVAGVDYIDLKPTMKVTEGDRVRLGQPLFEYKKLPGVVFTAPGAGRIVAINRGTRRILLSVVLQLDEQEDEETFIKYAPDELSNLADEQVKENLLISGLWTTLRTRPYSKVPDPATRPAAIFITAIDSNPLAADPVPIITAEMESFNHGLRILSRLTDGPLWVCQSPQAKLSLPEDLPQLQQARFAGPHPAGLPGTHIHFLQPVSAYKTVWYLNYQEVIAIGKLFVTGRLWTERIVALGGPGVKKPRLLRTRLGASLEELLAGELVESMDKRVISGSVWSGRKAVDELAFLGRHHLQVTVIGEKSEREFLGWLNPGGNKYSKLNVLFSSFFRKKRKFEFTASQQGSPRAMIPIDTFEEVMPLDILPAQLLRALLVMDTDMAQKLGCLELDEEDLALCSFICVGKHDYGVILRENLRQIEKEG	not soluble
MGSDKIHHHHHHMFKKVSRDPVHSEIYLYPLEILATDTKVVQRLRFLSQLAGATVVYPGATHTRFAHSLGTMHVAGLYARNLFKESDRIRIVRLAALLHDVGHGPFSHQFDDVVFKRYGYEDGHDEFRNRLITEKLPEEMMRVFNSYNERLKQAVIEDIRESVGEVSLEDAFQEIAKRVVEVYRGEETGSVDFNIIQGPLGADRLDFLLRDSYYSGVGHFAPMNVDRVLRNSLVKEVDGKEILCYHVKVVDNIYSILFSRFMMYKNVYFHKTSRAADLMIQEILLRACEILDLEERLKDLDEFLELTDYSILRELELKGDSETKKLVERFKNRDLWKMVVERPFSAEGFDPSELSLSAARNLIDKIVENIDRVLSSVNVEDSDKSILEEIRDNKEKFFRIDTPYKLTIFHPDEFLQNNVFLYDPKHDEILTVDEYVKKYPAYRLMVSNMIQIVRVYVTEDVREVLFKYGVIPEDGRRVITRW	not soluble
MGSDKIHHHHHHMFLKENSVDDFDKQLDDLFKTTKTSRISELSEALGVSPTTIRTWRGRNKIPASAFRKAELSIQNDSDVKTDTRISLSFYEISASAGGGALVEVEEQANLISFEPEWLNKEIGVNANDVFLMLVDGDSMYPTLKNGAMIMVNKHFNGLSDGIYVMRHEQNLLVKRLQMLPNGIIKVKSDNNLYEPWEINKENLDGTDIEIIGRVVWSGQRM	not soluble
MGSDKIHHHHHHMFRTFTEKRSEWKEQISEEIIPLIHRGMVNRKQWLLVNLKGRLWSGSLRDQFMFENIEWLRNYYKGEKLIVWAHNYHIRKNRSLLLELLRIKTVDHLLAKKYADRVFSVGFYAGSGTCLTPYKDLHEITMINQYHLELLLKELNGHTFFLPTNIGAKRNAWNKQAWWLLETRLLGMAPLVLKPIKAYDAIFFIKCVKPPQELGG	not soluble
